{
  "source": "the nanobody polyreactivity screen of Harvey et al. (2022)",
  "data": [
    {"assay": "yeast display, Sf9 membrane polyspecificity reagent, FACS + sequencing; frameworks hold sequencing errors", "summary_of_the_method": "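Galactose induction of a Saccharomyces cerevisiae BJ5465 synthetic nanobody display library ran 36–48 hours. The cells were then stained for 1 hour at 4 °C with 10% biotinylated, detergent-solubilized Sf9 membrane reagent, pulled down on streptavidin microbeads and FACS-sorted into low and high (top ~1%) gates on expression and reagent-binding fluorescence. Labels for polyreactivity follow the gate of origin.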", "values": [
      {"sequence": "QVQLEESGGGLVQAGGSLRISCAASGSIFPSYAMGWYRQAPGKERELVAAISSRGGSTYYADSVKGRFTISRDNAKNSVYLQMNSLKPEDTAVYYCNAVAGGVYVDKGYDYWGQGTQVTVSS", "polyreactivity (PSR sort gate)": "high polyreactivity"},
      {"sequence": "QVQLEESGGGLVQAGGSLRISCAASGSTYYNYAMGWYRQAPGKERELVAAISRSGITYYADSVKGRFTISRDNAKNTVYLQMNSLKPEDTAVYYCAAGRRFDQSMYYWGQGTQVTVSS", "polyreactivity (PSR sort gate)": "high polyreactivity"},
      {"sequence": "QVQLEESGGGLVQAGGSLRLICAASGGIFRYYAMGWSRQAPGKERELVAAITQSGARTYYADSVKGRFTISRDNAKNTVYLQMNSMKPEDTAVYYCAADRTGSRYNSWGQGTQVTVSS", "polyreactivity (PSR sort gate)": "high polyreactivity"},
      {"sequence": "QVQLEESGGGLVQAGGSLRLSCAASGFIFPHYAMGWYLQAPGKERELVAAISKSGDSTYYADSVKGRFTISRDNAKNTVYLQMNSLKPEDTAVYYCARRGRSLRWKYDYWGQGTQVTVSS", "polyreactivity (PSR sort gate)": "low polyreactivity"},
      {"sequence": "QVQLEESGGGLVQAGGSLRLSCAASGFIFSSNAMGWYRQAPGKESQLVARITRSDGSTYYADSVKGRFTISRDSAKNTVYLQMNSLKPEDTAFDYCAKGRDATHYEYYLYSMDYWGQGTQVTVSS", "polyreactivity (PSR sort gate)": "low polyreactivity"},
      {"sequence": "QVQLEESGGGLVQAGGSLRLSCAASGFISIPYAMGWYRQAPGKERELVASITRSGGNTYYADSVKGRFTISRDNAKNTVYLQMNSLKPEDTAVYYCNVVVYRWSPVSKLDYWGQGTQVTVSS", "polyreactivity (PSR sort gate)": "high polyreactivity"},
      {"sequence": "QVQLEESGGGLVQAGGSLRLSCAASGFITSHYAMGWYIQAPGKERELVATISSGGSTYADSVKGRFTISRDNAKNTVYLQMNSLKPEDTAVYYCNVRLQGTYRAGVRGDYWGQVTQVTVSS", "polyreactivity (PSR sort gate)": "high polyreactivity"},
      {"sequence": "QVQLEESGGGLVQAGGSLRLSCAASGFNFDVYAMGWYRQAPGKERELVAAISRSGGSTYYADSVKGRFTISRDNAKNTFYLQMNSLKPEDTAVYYCATDLLNNVDYDYWGQGTQVTVSS", "polyreactivity (PSR sort gate)": "low polyreactivity"},
      {"sequence": "QVQLEESGGGLVQAGGSLRLSCAASGFNFFRNTMGGYRQAPGKERELVAGIRYSGGSTYYADSVKGRFTISRDNAKNTVYLQMNSLKPEDTAVYYCAARSHRRLMYYWGQGTQVTVSS", "polyreactivity (PSR sort gate)": "high polyreactivity"},
      {"sequence": "QVQLEESGGGLVQAGGSLRLSCAASGFNFRKNVMGWYRPAPGKERELVAAISAPGGSTYYAHSVKGRFTISRDNGKNTGYLQMYCLKPEDPAVYFCKTDGYLYQYDYWGQGTQVTVSS", "polyreactivity (PSR sort gate)": "high polyreactivity"},
      {"sequence": "QVQLEESGGGLVQAGGSLRLSCAASGFNFWVYAMGWYRQAPGKERELVAAISYNGGRTYYADSVKGRFTISRDNAKNTVYLQMNSLKPEDTAVYYCASLPAPTGRGDYWGQGTQVTVSS", "polyreactivity (PSR sort gate)": "high polyreactivity"},
      {"sequence": "QVQLEESGGGLVQAGGSLRLSCAASGFTFNYYTMGWYTQAPGKERELVATISTRGGSTYYADSVKGRFTISRDNAKNSVYLQMNSLKPEDTAVYYCNVGQKSVSSAYDYWGQGTEVTVSS", "polyreactivity (PSR sort gate)": "high polyreactivity"},
      {"sequence": "QVQLEESGGGLVQAGGSLRLSCAASGFTFRRYAMGWYRQAPGKERELVAVITTAGYTNYADSVKGRFTISRDNAKNSVYLQMNSLKPEDTAVYYCATDNGTRKRRYDYWGQGTQVTVSS", "polyreactivity (PSR sort gate)": "low polyreactivity"},
      {"sequence": "QVQLEESGGGLVQAGGSLRLSCAASGFTFTRNAMGWYRQAPGKERELVAAISRGGSTNYADSVQGRFRISSDNAKNTVYLQMNSLKPEDTAVYYCAKVRTRATPGVDYYYWGQGTQVTVSS", "polyreactivity (PSR sort gate)": "high polyreactivity"},
      {"sequence": "QVQLEESGGGLVQAGGSLRLSCAASGFTFTTNAMGWYRQAPGKERELVAAISFSGGTTYYADSVKGRFTISRDNAKNTVYLQMNSLKPEDTAVYYCAAQPGQAWWSTDHDDYWGQGTQVSVSS", "polyreactivity (PSR sort gate)": "low polyreactivity"},
      {"sequence": "QVQLEESGGGLVQAGGSLRLSCAASGFTFVDYLMGWYRQAPGKERELVAAITRSGGSTYYADSVKGRFTISRDQAKNTVYLEMNSLKPEDTAVYYCAAEIRDYAKSYSFYWGQGTQVTVSS", "polyreactivity (PSR sort gate)": "high polyreactivity"},
      {"sequence": "QVQLEESGGGLVQAGGSLRLSCAASGFTFYLYTMGWYRQAPGKERELVAAISRSGDRTYYADSVKGRFSISRDNAKNTVYLQMNSLKPEDTAVYYCAARSYRPTRGDYWGQGTQVTVSS", "polyreactivity (PSR sort gate)": "high polyreactivity"},
      {"sequence": "QVQLEESGGGLVQAGGSLRLSCAASGFTFYSYAKGCSRQAPGKERELVAAISWSGSRTYYADSVKGRFTISRDNAKNTVYLQMNSLKPEDTAVYVCNKYLPRHRYDFDYWGQGTQVTVSS", "polyreactivity (PSR sort gate)": "high polyreactivity"},
      {"sequence": "QVQLEESGGGLVQAGGSLRLSCAASGFTIGVYAMGWYRQAPGKERELVAAISARGGSTYYADSVKGRFTISRDNAKKTVYLQMNSLKPEDTAVFYCAVVLKYVSADQMDYWGQGTQVTVSS", "polyreactivity (PSR sort gate)": "high polyreactivity"},
      {"sequence": "QVQLEESGGGLVQAGGSLRLSCAASGGIFDYNSMGWYRQAPGKERELVAAISSGASTTYADSVKGRFTISRDNAKNTVYLQMNSLKPEATAVYYCAAYWKSRYLSGLEYYSWGQGTQVTVSS", "polyreactivity (PSR sort gate)": "low polyreactivity"},
      {"sequence": "QVQLEESGGGLVQAGGSLRLSCAASGGIFYGYAMGWNRQAPGIERELVAAISDSGGSTYYADSVKGRFTISRDNAKNTVFLQLNSLNPEDTAVYYCATDARVGGYVSEGDFWGQGTQVTVSW", "polyreactivity (PSR sort gate)": "low polyreactivity"},
      {"sequence": "QVQLEESGGGLVQAGGSLRLSCAASGGTFDHYTMGWYRQAPGKERELVAAISRRSGRTYYADSVKGRFTISRDKAKNTVYLQMNSLKPEDTAVYYCNADGYTRAFDYWGQGTQVTVSS", "polyreactivity (PSR sort gate)": "high polyreactivity"},
      {"sequence": "QVQLEESGGGLVQAGGSLRLSCAASGIIFATYAMGWYTQAPGKDRELVAAISSGGRTYYADSVKGRFTISRDNAKNTVYFQMNSLKPEDTAVYYCAAKSGGRSSLYNYWGQGTQVTVSS", "polyreactivity (PSR sort gate)": "high polyreactivity"},
      {"sequence": "QVQLEESGGGLVQAGGSLRLSCAASGIIFSPYAMGWYIQAPWKERELVAAINFSTGRTYYADSVKGRFTISRDNAKNTVYLQMNSLKPEDTAVYYCAAGKYPYVFRGGYDYWGQGTQVTVSS", "polyreactivity (PSR sort gate)": "low polyreactivity"},
      {"sequence": "QVQLEESGGGLVQAGGSLRLSCAASGIIFYRSVMGWYRQAPGKERELVAAITGGGSTYYADSVKGRFTISRDNAKNTVYLQMNSLKPEDTAVYYCNADIRAYTVLTGGYIYDYWGQVTQVTVSS", "polyreactivity (PSR sort gate)": "high polyreactivity"},
      {"sequence": "QVQLEESGGGLVQAGGSLRLSCAASGITFAHYAMGWSRQAPGKDRELVAAISQSGGSTYYADSVKGRFTISRDNAKNTVYLQMNSLKPEDTAVYYCNKYRYPQDDYWGQGTQVTVSS", "polyreactivity (PSR sort gate)": "high polyreactivity"},
      {"sequence": "QVQLEESGGGLVQAGGSLRLSCAASGITFNQYVMGWYRQAPGKEMELVAAISRSGATTYYADSVKGRFTISRDNAKNTVYLQMNSLKPEDTAVYYCAVRGSVSYTRYGYWGQGTQVTVSS", "polyreactivity (PSR sort gate)": "high polyreactivity"},
      {"sequence": "QVQLEESGGGLVQAGGSLRLSCAASGITFTLNAMGWYRQAPGKERELVATINRGTGTNYADSVKGRFTISRDNAKYTVYLQMNSLKPEVTAVYYCAADHRGEYDYWGQGTQVTVSS", "polyreactivity (PSR sort gate)": "low polyreactivity"},
      {"sequence": "QVQLEESGGGLVQAGGSLRLSCAASGITFVGNAMGWYRQAPGKERELVAGIRGNGGSTYYADSVKGRFTISRDNAKNTVYLQMHSMNPEDTAVYYCAAAAYYADFDYWGQGTQVTVSS", "polyreactivity (PSR sort gate)": "low polyreactivity"},
      {"sequence": "QVQLEESGGGLVQAGGSLRLSCAASGITYYYAMGWYRQAPGKERELVAVITPGVSTNYADSVKGRFTISRDNAKNSVYLHMNSLKPEDTAVYYCATDVQVPCIGRSVYAYEYWGQGTQVTVSS", "polyreactivity (PSR sort gate)": "low polyreactivity"},
      {"sequence": "QVQLEESGGGLVQAGGSLRLSCAASGLICVLYTMGSYRQAPGKERELVATINWGGGNTYYADSVKGRFTISRDNAKNTVYLQMNSLKPEDTAVYYCAAAYTWYGYSQAYYYWGQGTQVTVSS", "polyreactivity (PSR sort gate)": "low polyreactivity"},
      {"sequence": "QVQLEESGGGLVQAGGSLRLSCAASGLTLGRYAMGWYRQAPGKERELVAVITGGGSTNYADSVKGRFTISRDNAKNTVYLQMNSLKPEDTAVYSCAVRGGIFQTLSTWYRYYYWGQGTQVTVSS", "polyreactivity (PSR sort gate)": "high polyreactivity"}
    ]}
  ]
}
